Data reported in PMC3983041, “Interplay of the Serine/Threonine-Kinase StkP and the Paralogs DivIVA and GpsB in Pneumococcal Cell Elongation and Division” (PLoS Genetics, 2014).

T1: DivIVA (Streptococcus pneumoniae (strain R800), UniProt Q8CWP9 1-262)
T1 construct: DivIVA of Streptococcus pneumoniae, PCR from chromosomal DNA of strain R800, cloned in pETPhos; also called Spn-DivIVA; DivVA; source: E. coli BL21(DE3), purified (Ni-NTA agarose)
T1 sequence (looked up): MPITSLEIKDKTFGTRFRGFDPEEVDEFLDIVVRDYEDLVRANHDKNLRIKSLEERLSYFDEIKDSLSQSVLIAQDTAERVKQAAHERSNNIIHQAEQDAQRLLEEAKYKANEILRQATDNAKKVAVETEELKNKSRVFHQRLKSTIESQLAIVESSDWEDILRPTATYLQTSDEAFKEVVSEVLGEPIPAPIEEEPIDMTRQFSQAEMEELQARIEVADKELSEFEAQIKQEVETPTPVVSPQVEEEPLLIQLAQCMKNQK

T2: inactive cytoplasmic domain of StkP-K42R (Streptococcus pneumoniae (strain R800), UniProt Q8DNS0 1-342, K42R)
T2 construct: also called StkP-K42R cytoplasmic domain; source: E. coli BL21(DE3), purified (Ni-NTA agarose)
T2 sequence: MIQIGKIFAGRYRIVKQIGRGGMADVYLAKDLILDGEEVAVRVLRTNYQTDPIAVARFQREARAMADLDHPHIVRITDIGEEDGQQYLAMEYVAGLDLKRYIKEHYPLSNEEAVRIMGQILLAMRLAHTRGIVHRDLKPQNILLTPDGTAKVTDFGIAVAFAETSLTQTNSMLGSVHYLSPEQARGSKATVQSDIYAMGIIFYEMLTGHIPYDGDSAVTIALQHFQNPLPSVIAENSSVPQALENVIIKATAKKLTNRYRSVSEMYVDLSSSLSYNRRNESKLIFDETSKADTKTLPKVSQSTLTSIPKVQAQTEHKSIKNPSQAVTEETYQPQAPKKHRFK

B1: GpsB (natural protein, Streptococcus pneumoniae (strain R800), UniProt C1CIN3 1-109, looked up)
chain: MASIIFSAKDIFEQEFGREVRGYNKVEVDEFLDDVIKDYETYAALVKSLRQEIADLKEELTRKPKPSPVQAEPLEAAITSSMTNFDILKRLNRLEKEVFGKQILDNSDF
notes: GpsB of Streptococcus pneumoniae, PCR from chromosomal DNA of strain R800, cloned in pETPhos; In the SPR either coupled to the chip by its amino groups or injected as analyte; also called Spn-GpsB; source: E. coli BL21(DE3), purified (Ni-NTA agarose)
B2: DivIVA (natural protein)
chain: T1 sequence (looked up)

How the values were obtained:
Assay in all cases: SPR; BIAcore T100; EzrA or GpsB covalently coupled through amino groups to a CM5 chip; analytes 0.002-1 µM at 30 µL/min in 10 mM HEPES pH 7.4, 150 mM NaCl, 0.005% surfactant; apparent KD from the equilibrium signal (Req); triplicate
[1] = molecular target: EzrA without its N-terminal transmembrane domain (Streptococcus pneumoniae (strain R800))
DivIVA = molecular target: T1, DivIVA; conditions: both partners purified
[2] = molecular target: T2, inactive cytoplasmic domain of StkP-K42R; conditions: both partners purified

EzrA without its N-terminal transmembrane domain (Streptococcus pneumoniae (strain R800)), sequence (B1IAY5 28-575 limits assumed): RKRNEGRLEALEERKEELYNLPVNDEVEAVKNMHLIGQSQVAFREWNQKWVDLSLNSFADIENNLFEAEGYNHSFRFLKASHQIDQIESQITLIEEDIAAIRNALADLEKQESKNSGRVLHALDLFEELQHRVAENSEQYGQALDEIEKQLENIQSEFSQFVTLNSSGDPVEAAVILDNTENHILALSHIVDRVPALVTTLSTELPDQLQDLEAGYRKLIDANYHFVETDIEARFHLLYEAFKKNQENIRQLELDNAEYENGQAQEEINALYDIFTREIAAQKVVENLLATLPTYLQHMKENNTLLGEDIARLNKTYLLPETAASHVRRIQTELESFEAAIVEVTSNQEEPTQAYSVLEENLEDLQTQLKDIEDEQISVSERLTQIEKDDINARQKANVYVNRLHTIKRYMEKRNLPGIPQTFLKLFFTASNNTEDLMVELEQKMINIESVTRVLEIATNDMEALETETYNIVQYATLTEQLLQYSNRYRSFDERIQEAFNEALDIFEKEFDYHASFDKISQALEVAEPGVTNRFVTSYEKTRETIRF

| Molecule | Kd [1] [nM] | Kd (DivIVA) [nM] | Kd [2] [nM] |
| --- | --- | --- | --- |
| FtsZ (from UniProt A0A0H2ZNE0 1-419) (natural protein) | 295 | – | – |
| GpsB (from UniProt C1CIN3 1-109) (natural protein) | 770 | – | – |
| B1 | – | 85 ± 14 | 500 ± 60 |
| B2 | 530 | – | – |
